Stoichiometry N and percent converted to tetramers data for three substances are collected here from PMC3212032.

“And” between values parts separate entries of the source, which are not always exact repeats. Equal entries are not always repeated. Where two headings read alike, the source gives them in different places.

For assay [1], the target named is wt HIV-1 integrase (pNY strain) (human immunodeficiency virus type-1 (pNY strain)). Nature of the assay: SEC.
Assay [2] shares this target. The assay can be described thus: cross-linking.
The target is the same in assay [3]. The assay can be described thus: cross-linking. This is another data set of the same source.
The target of assay [4] is HIV-1 integrase F185K (pNY strain) (human immunodeficiency virus type-1 (pNY strain)). The assay can be described thus: SEC. Background: SEC sorts molecules by how far they enter the pores of the column.
For assay [5] the target is unchanged. Nature of the assay: SEC. The source holds these as a separate data set.
Assay [6] has as its target wt Rous sarcoma virus integrase (286 residues) (Rous sarcoma virus). The assay can be described thus: SEC.
Assay [7] has the same target. Nature of the assay: SEC. This is another data set of the same source.

Take “wt HIV-1 integrase (pNY strain) (enzyme)”: the stoichiometry N (as a rule, a count of units in the complex or per binding partner) is 4 in assay [1]; 2 and 3 and 4 in assay [2]; 2 in assay [3].
In assay [4], “HIV-1 integrase F185K (pNY strain) (enzyme)” returned a stoichiometry N of 2. Also, in assay [5], the percent converted to tetramers stood at 65%; the stoichiometry N is 2 and 4.
For the substance “wt Rous sarcoma virus integrase (286 residues) (enzyme)”, the stoichiometry N is 2 and 4 in assay [6]; 2 and 4 in assay [7].
